In experiment [1] the target is T1, human c-MET (human, UniProt P08581 25-1390). The experiment in a line: cell-based or functional assay.
Experiment [2] concerns the target T1, human c-MET. The experiment in a line: flow cytometry on EBC-1 cells (highly express c-MET). The text has this: (§1) A flow cytometer (Beckman, model Cytoflex) was used to detect the interaction between anti-human EGFR/c-MET bispecific antibodies and their conjugates and human gastric cancer cells MKN45 (Nanjing Cobioer Biosciences) and human gastric cancer cells overexpressing human EGFR MKN45-EGFR (Kelun-Biotech), human lung squamous cell carcinoma EBC-1 (Nanjing Cobioer Biosciences), human lung squamous cell carcinoma EBC-1-EGFR overexpressing human EGFR (Kelun-Biotech), human non-small cell lung cancer cell HCC827 (ATCC™), and human epidermal squamous cell carcinoma cell A431 (Nanjing Cobioer Biosciences). The protocol was as follows.
(§2) The adherent cells were digested with Trypsin-EDTA solution (0.25%) (Shanghai BasalMedia) and the cell density adjusted to 4.0×10⁶ per mL. The cells were washed twice with 1% BSA and resuspended in 1% BSA solution. Then 50 μL cell suspension was added to each well of a 96-well plate (the number of cells was 2×10⁵ per well). The antibody and its conjugate were diluted with 1% BSA (final concentration 10 µg/mL, 3-fold gradient dilution, a total of 11 concentration points). Then 50 μL of the diluted antibody and ADC were added to the wells of the 96-well plate and the plate was incubated at 4° C. for 60 minutes. The wells of the 96-well plate were then washed twice with 1% BSA, 50 μL of diluted secondary antibody was added to each well, and the 96-well plate was incubated at 4° C. for 30 minutes. Then the cells were washed twice with 1% BSA, and the cells were resuspended in 200 μL of 1% BSA and subjected to flow cytometry detection.
(In general: A flow cytometer gives signals particle by particle.)

Experiment [3] deals with T1, human c-MET. Description: flow cytometry on MKN45 cells (highly express c-MET).
Source text: as §1, §2

For experiment [4], the target named is T2, human EGFR (human, UniProt P00533 25-1210).
T2 construct: whole, on cells; also called epidermal growth factor receptor; ErbB-1
The experiment in a line: flow cytometry on A431 cells (highly express EGFR).
Source text: as §1
as §2, with “The wells of the 96-well plate were then washed twice with 1% BSA, 50 μL of diluted secondary antibody was added to each well, and the 96-well plate was incubated at 4° C. for 30 minutes. Then the cells were washed twice with 1% BSA, and the cells were resuspended in 200 μL of 1% BSA and subjected to flow cytometry detection.” left out

Results on three molecules are retold here after patent US20250161474A1 (SICHUAN KELUN BIOTECH BIOPHARMACEUTICAL, published 2025).

T1 sequence (P08581 25-1390): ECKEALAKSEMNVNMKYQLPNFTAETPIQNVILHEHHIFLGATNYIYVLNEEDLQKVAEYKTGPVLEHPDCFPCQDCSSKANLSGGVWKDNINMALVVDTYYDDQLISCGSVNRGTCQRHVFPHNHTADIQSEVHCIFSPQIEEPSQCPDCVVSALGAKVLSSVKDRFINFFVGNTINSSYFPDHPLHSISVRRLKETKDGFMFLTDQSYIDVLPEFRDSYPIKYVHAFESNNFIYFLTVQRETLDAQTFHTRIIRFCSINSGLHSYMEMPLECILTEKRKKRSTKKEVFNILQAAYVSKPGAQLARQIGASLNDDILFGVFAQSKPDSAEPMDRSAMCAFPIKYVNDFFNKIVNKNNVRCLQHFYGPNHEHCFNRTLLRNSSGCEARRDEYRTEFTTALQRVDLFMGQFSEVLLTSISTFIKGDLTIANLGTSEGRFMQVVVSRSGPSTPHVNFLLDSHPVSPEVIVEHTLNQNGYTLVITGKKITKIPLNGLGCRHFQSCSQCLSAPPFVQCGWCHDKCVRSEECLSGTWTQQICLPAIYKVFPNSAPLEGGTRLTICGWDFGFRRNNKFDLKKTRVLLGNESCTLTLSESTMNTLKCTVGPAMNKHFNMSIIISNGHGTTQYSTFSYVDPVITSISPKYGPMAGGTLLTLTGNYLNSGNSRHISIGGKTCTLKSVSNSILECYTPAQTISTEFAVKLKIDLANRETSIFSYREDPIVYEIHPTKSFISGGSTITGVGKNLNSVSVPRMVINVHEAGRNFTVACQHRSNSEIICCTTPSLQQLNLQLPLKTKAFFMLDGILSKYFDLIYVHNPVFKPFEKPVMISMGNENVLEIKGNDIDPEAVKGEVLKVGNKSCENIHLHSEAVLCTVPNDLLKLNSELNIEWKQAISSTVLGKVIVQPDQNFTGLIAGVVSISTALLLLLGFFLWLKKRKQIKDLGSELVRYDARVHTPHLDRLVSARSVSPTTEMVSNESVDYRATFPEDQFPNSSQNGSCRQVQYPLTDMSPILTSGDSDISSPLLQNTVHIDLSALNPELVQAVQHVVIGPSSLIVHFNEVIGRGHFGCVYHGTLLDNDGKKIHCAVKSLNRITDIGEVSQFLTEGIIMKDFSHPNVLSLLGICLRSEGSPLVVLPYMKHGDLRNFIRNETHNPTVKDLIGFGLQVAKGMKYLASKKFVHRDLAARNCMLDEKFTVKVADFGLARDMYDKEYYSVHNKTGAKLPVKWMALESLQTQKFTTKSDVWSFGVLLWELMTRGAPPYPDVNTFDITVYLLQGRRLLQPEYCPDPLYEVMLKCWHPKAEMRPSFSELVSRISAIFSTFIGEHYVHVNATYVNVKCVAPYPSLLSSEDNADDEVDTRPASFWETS

B1: ADC 49B-B-01 (bispecific antibody, human IgG1, kappa, L234A L235A)
light: DIQMTQSPSSLSASVGDRVTITCKSSQSLLYTSSQKNYLAWYQQKPGKAPKLLIYWASTRESGVPSRFSGSGSGTDFTLTISSLQPEDFATYYCQQYYAYPWTFGQGTKVEIKRTVAAPSVFIFPPSDEQLKSGTASVVCLLNNFYPREAKVQWKVDNALQSGNSQESVTEQDSKDSTYSLSSTLTLSKADYEKHKVYACEVTHQGLSSPVTKSFNRGEC
heavy: not shown
chain: AIQLTQSPSSLSASVGDRVTITCRASQDISSALVWYQQKPGKAPKLLIYDASSLESGVPSRFSGSESGTDFTLTISSLQPEDFATYYCQQFNSYPLTFGGGTKVEIKGGGGSGGGGSGGGGSQVQLVESGGGVVQPGRSLRLSCAASGFTFSTYGMHWVRQAPGKGLEWVAVIWDDGSYKYYGDSVKGRFTISRDNSKNTLYLQMNSLRAEDTAVYYCARDGITMVRGVMKDYFDYWGQGTLVTVSSGGGGDKTHTCPPCPAPEAAGGPSVFLFPPKPKDTLMISRTPEVTCVVVDVSHEDPEVKFNWYVDGVEVHNAKTKPREEQYNSTYRVVSVLTVLHQDWLNGKEYKCKVSNKALAAPIEKTISKAKGQPREPQVCTLPPSRDELTKNQVSLSCAVKGFYPSDIAVEWESNGQPENNYKTTPPVLDSDGSFFLVSKLTVDKSRWQQGNVFSCSVMHEALHNHYTQKSLSLSPGK
modifications: linker-payload B-01 on reduced Cys sulfhydryls (sites not given); DAR of the whole ADC approximately 6
In general, EC50 refers to the midpoint of the concentration-response curve. A high value points to a need for much substance. Take B1: the “IC50, in vitro cell killing (CCK8) on EBC-1 cells” value in experiment [1] was 0.66 nM. The “IC50, in vitro cell killing (CCK8) on MKN45 cells” value in experiment [1] was 0.78 nM. Besides, the EC50 was found to be 1.13 nM in experiment [2] and 1.36 nM in experiment [3].

B2: BsAb 41B (bispecific antibody, human IgG1, kappa, L234A L235A)
light: not shown
heavy: not shown
chain: DIQMTQSPSSLSASVGDRVTITCKSSQSLLYTSSQKNYLAWYQQKPGKAPKLLIYWASTRESGVPSRFSGSGSGTDFTLTISSLQPEDFATYYCQQYYAYPWTFGCGTKVEIKRTVAAPSVFIFPPSDEQLKSGTASVVCLLNNFYPREAKVQWKVDNALQSGNSQESVTEQDSKDSTYSLSSTLTLSKADYEKHKVYACEVTHQGLSSPVTKSFNRGECGGGGSGGGGSGGGGSGGGGSGGGGSGGGGSGGGGSGGGGSEVQLVESGGGLVQPGGSLRLSCAASGYTFTSYWLHWVRQAPGKCLEWVGMIDPSNSDTRFNPNFKDRFTISADTSKNTAYLQMNSLRAEDTAVYYCATYRSYVTPLDYWGQGTLVTVSSASTKGPSVFPLAPSSKSTSGGTAALGCLVKDYFPEPVTVSWNSGALTSGVHTFPAVLQSSGLYSLSSVVTVPSSSLGTQTYICNVNHKPSNTKVDKKVEPKSCDKTHTCPPCPAPEAAGGPSVFLFPPKPKDTLMISRTPEVTCVVVDVSHEDPEVKFNWYVDGVEVHNAKTKPREEQYNSTYRVVSVLTVLHQDWLNGKEYKCKVSNKALAAPIEKTISKAKGQPREPQVCTLPPSRDELTKNQVSLSCAVKGFYPSDIAVEWESNGQPENNYKTTPPVLDSDGSFFLVSKLTVDKSRWQQGNVFSCSVMHEALHNHYTQKSLSLSPGK
notes: Fab-scFab-Fc (KIH) format; anti-EGFR Fab, anti-c-MET scFab; also called bispecific antibody 41B
B2: the values for the EC50 in experiment [4] and in experiment [3] were 1.34 nM and 1.77 nM, respectively.

B3: ADC 10B-A-05 (bispecific antibody, human IgG1, kappa)
light: not shown
heavy: not shown
chain: DIQMTQSPSSLSASVGDRVTITCKSSQSLLYTSSQKNYLAWYQQKPGKAPKLLIYWASTRESGVPSRFSGSGSGTDFTLTISSLQPEDFATYYCQQYYAYPWTFGQGTKVEIKGGGGSGGGGSGGGGSEVQLVESGGGLVQPGGSLRLSCAASGYTFTSYWLHWVRQAPGKGLEWVGMIDPSNSDTRFNPNFKDRFTISADTSKNTAYLQMNSLRAEDTAVYYCATYRSYVTPLDYWGQGTLVTVSSGGGGDKTHTCPPCPAPELLGGPSVFLFPPKPKDTLMISRTPEVTCVVVDVSHEDPEVKFNWYVDGVEVHNAKTKPREEQYNSTYRVVSVLTVLHQDWLNGKEYKCKVSNKALPAPIEKTISKAKGQPREPQVCTLPPSREEMTKNQVSLSCAVKGFYPSDIAVEWESNGQPENNYKTTPPVLDSDGSFFLVSKLTVDKSRWQQGNVFSCSVMHEALHNHYTQKSLSLSPGK
modifications: linker-payload A-05 on reduced Cys sulfhydryls (sites not given); DAR of the whole ADC approximately 6
Turning to B3, the “IC50, in vitro cell killing (CCK8) on EBC-1 cells” value in experiment [1] was 0.59 nM. In experiment [1], the “IC50, in vitro cell killing (CCK8) on MKN45 cells” value turned out to be 0.33 nM. Besides, the EC50 was found to be 1.91 nM in experiment [2] and 2.14 nM in experiment [3].
